From article doi:10.1101/2024.09.16.613172

What was measured:
Assay in all cases: ITC
SH3L-optiMHETase = molecular target: SH3L-optiMHETase
[1] = molecular target: FAST-PETase-CelK (not stated | Clostridium thermocellum)
[2] = molecular target: ICCG-ScaA (not stated | Ruminococcus flavefaciens)
[3] = molecular target: MHETase-CelF (not stated | Clostridium cellulolyticum) (UniProt P37698)

Substance | Kd (SH3L-optiMHETase) [nM] | Kd [1] [nM] | Kd [2] [nM] | Kd [3] [nM]
CipA-CBM-SH3D (Scaf.3) | 12.6 | – | – | –
CipA-CBM-SH3D-ScaB (Scaf.4) | 3.53 | 6.44 | 5.25 | –
CipA-CBM-CipC (Scaf.2) | – | 19.1 | – | 1000
